One data set addresses XuaH (Ruminiclostridium cellulolyticum, UniProt B8I0P1). Put plainly: Esterase activity of XuaH. It is filed as biochemical. The settings on record: 37 °C, 25 mM phosphate buffer pH 7, XuaH 0.1 µM for 1-naphthyl acetate. As to the method: (§1) Esterase activity was tested using 1-Naphthyl acetate. Release of 1-Naphthol was monitored at 320 nm during 5 min at 37 °C in 25 mM phosphate buffer pH 7, with substrate final concentration ranging from 110 µM and 5.36 mM, and with XuaH (0.1 µM) or XuaJ (0.01 µM). Concentration of released 1-Naphthol during the first minute of the assay was determined based on 1-Naphthol standard curve.

A further data set concerns the target XuaJ (Ruminiclostridium cellulolyticum, UniProt B8I0P3). Put plainly: Esterase activity of XuaJ. It is filed as biochemical. The settings on record: 37 °C, 25 mM phosphate buffer pH 7, XuaJ 0.01 µM for 1-naphthyl acetate. The method, then:
as §1

Substrate in data set [1]: CC(=O)Oc1cccc2ccccc12
Put plainly: Esterase activity of XuaJ. The settings on record: other: 37 °C, pH 7, substrate 110 µM to 5.36 mM. It is filed as biochemical, Ruminiclostridium cellulolyticum. The method, then: as §1

Substrate in data set [2]: OC[C@@H]1O[C@@H](O[C@@H]2[C@@H](O[C@@H]3O[C@@H](CO)[C@H](O)[C@H]3O)[C@H](O[C@@H]3CO[C@@H](O[C@@H]4COC(O)[C@H](O)[C@H]4O)[C@H](O)[C@H]3O)OC[C@H]2O)[C@H](O)[C@H]1O
Description: Enzyme activity of XuaD on AXOS (HPAEC-PAD). It is filed as biochemical, Ruminiclostridium cellulolyticum. The settings on record: other: 37 °C, substrate 0.05 to 8 mM. The method, then: (§2) XuaD, E, F, G (0.01 to 1 µM) were tested with different AXOS and/or XOS at 1 mM with incubation times varying from 5 min to 24 h. Enzymes (10 nM) were incubated at 37 °C for 5 min, kinetic parameters of XuaD were determined with both A^2,3XX and A^2XX, with sugar concentration varying from 0.05 to 8 mM, and XuaE with A^2,3XX with sugar concentration varying from 0.05 to 1 mM (at least 9 concentration point). Substrates and released products were quantified by high performance anion exchange chromatography coupled with pulsed amperometric detection on an ICS-3000 using a PA1 column (Thermo Scientific). Sugars were eluted with the buffers 0.1 M NaOH and 0.5 M sodium acetate + 0.1 M NaOH as the eluants A and B, respectively, using the multistep procedure as follows: isochratic separation (5 min, 95% A + 5% B), separation gradient (8 min, 10–37% B), column wash (2 min, 99% B), and subsequent column equilibration (2.5 min, 95% A + 5% B).

Substrate in data set [3]: OC[C@@H]1O[C@@H](O[C@H]2[C@H](O[C@@H]3CO[C@@H](O[C@@H]4COC(O)[C@H](O)[C@H]4O)[C@H](O)[C@H]3O)OC[C@@H](O)[C@@H]2O)[C@H](O)[C@H]1O
Description: Enzyme activity of XuaD on AXOS (HPAEC-PAD). It is filed as biochemical, Ruminiclostridium cellulolyticum. The settings on record: other: 37 °C, substrate 0.05 to 8 mM. The method, then:
as §2

The source of these data is PMC9675976, “Selfish uptake versus extracellular arabinoxylan degradation in the primary degrader Ruminiclostridium cellulolyticum, a new string to its bow” (Biotechnology for Biofuels and Bioproducts, 2022).

Sequence of XuaH (B8I0P1 entry or part of it): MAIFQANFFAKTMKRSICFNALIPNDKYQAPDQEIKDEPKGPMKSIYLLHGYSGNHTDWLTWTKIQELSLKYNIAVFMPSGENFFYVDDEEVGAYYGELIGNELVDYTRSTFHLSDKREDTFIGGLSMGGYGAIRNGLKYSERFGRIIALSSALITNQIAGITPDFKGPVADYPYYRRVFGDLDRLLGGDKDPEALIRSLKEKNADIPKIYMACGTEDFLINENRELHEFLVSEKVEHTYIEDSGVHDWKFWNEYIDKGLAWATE

Take `CC(=O)Oc1cccc2ccccc12` [1-Naphthyl acetate]: the “Specific activity (IU) of XuaH” value at XuaH is “IU: 3504.6 ± 18.9 IU/µmol of enzyme”. Further, the “Specific activity (IU) of XuaJ” value on XuaJ is listed as “IU: 21130.4 ± 676.4 IU/µmol of enzyme”.

B1: XuaJ (Ruminiclostridium cellulolyticum H10) (protein)
chain: MGIILNSNRPKIRLPRIISDGMVLQRNTDVKIWGWASPGEAVTVRFIGKAYHAFADDSGEWFVRLEQAKAGGPYDMYIETEESLEKITIKNILMGDVWLCSGQSNMEMKMDSVKDTYPDEIVHSCNDYIRHFLVPVKYDFEKPQTDLEAGIWEAANPESILDFTATGYFFALKLFEKYNIPIGLINASLGGSPAEAWLSENALREFPEHYESAKQLSNRDYLDKVLREDQESAEAWYTALNQNDEGLKSNDIPFHDTEYDAPFWQNIKVPSYWEDEGVGNFNGVVWFRKEIDIPSTLADKPARLVLGNIVDEDTAYINGIEVGTTPNQYITRKYSIQEGLLKEGKNTIVLRVVNTAGKGGFYKDKPYQLEIGDNIIELSGEWQYMIGAKSSPMPAPAFVQWRPLGLYNGMIAPVTSYSIKGFIWYQGESNTKNPGEYENLLKALIADWRQKWNMGNLPFLYVQLPNFMEASEIPMESSWAELREAQRRTLSVPCTGMAVAIDLGEWNDIHPVNKKDVGFRLALAAMKTAYRDKTIVAYGPMYQSGKIDGNRIILSFTDTGSGLTVKNGDRPEAFAIAGADRTFVRADAEIIGDSVAVWSEKVSHPVYVKYAWADNPADANLYNLEGLPASPFTTE
As to B1, in data set [1], the Km entry is listed as “Km: 0.2 ± 0.02 mM”, the kcat entry is given as “kcat: 21380.0 ± 440.0 min^-1” and the kcat/Km result is on record as “kcat/Km: 88703.9 ± 7849.6 min^-1 mM^-1”.

B2: XuaD (Ruminiclostridium cellulolyticum H10) (protein)
chain: MVKMILNADIKKGKINKNIYGHFSEHLGRCIYEGLWVGEDSEIPNINGFRTDVVEALKKMKIPVLRWPGGCFADEYHWVDGIGPKENRPCMVNTHWGGVVENNHFGTHEFLELCEMLGAEPYICGNVGSGTVHEMQQWVEYMTFDGKSPMADLRRANGKEEPWRVKYFGVGNENWGCGGNMTAEFYADQYKRYATYVRNFGDNKIYKIAGGASVDDYHWTEVLMREAGKQMDGLSVHYYTRISKDWSEQGSATEFDENHWFSVMQNALFTEELVVRHSNIMDKYDPEKKVGMIVDEWGTWFAVEPGTNPGFLYQQNTMRDALVAGIHLNIFNNHCDRVQMANIAQMVNVLQAVILTEGKKMLLTPTYHVFDMYKVHQGAELLSLDFESPEYAYNGEKVPQLSASSSVDSEGKIHVTICNLNPSADVNIDIDLRGVKSKSSTGKIITSNAMNAKNTFEETTNVTIKNFEDINLENNHISGKIPSKSVVLLEIV
With B2, in data set [2], the Km entry is on record as “Km 1.8 ± 0.2 mM”, the kcat entry is on record as “kcat 4191.3 ± 117.3 min^−1” and the kcat/Km entry is reported as “kcat/Km 2388.2 ± 182.9 min^−1 mM^−1”. Besides, in data set [3], the Km entry is listed as “Km 1.4 ± 0.3 mM”, the kcat result was “kcat 3408.0 ± 356.6 min^−1” and the kcat/Km entry is “kcat/Km 2411.9 ± 303.3 min^−1 mM^−1”.
